These results are taken from article PMC11237882 (2024).

Bounds are passed on as bounds.

One assay concerns the target ENAH EVH1 (Homo sapiens, UniProt Q8N8S7). Put plainly: BLI.
The next assay has as its target T1, Homer1 EVH1 (Homo sapiens, UniProt Q86YM7).
T1 chain: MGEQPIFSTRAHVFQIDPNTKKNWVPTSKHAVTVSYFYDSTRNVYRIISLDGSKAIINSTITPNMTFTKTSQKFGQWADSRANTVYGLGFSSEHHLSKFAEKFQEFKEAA
Kind of assay: BLI. Background: Biolayer interferometry detects binding as a change in optical thickness at a sensor tip.

ENAH EVH1, sequence (Q8N8S7 1-111): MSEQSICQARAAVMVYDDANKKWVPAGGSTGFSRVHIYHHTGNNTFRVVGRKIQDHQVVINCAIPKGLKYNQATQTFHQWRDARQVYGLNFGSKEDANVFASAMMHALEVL

What is called Kd is a measure of binding affinity in units of concentration. Read a high Kd as weaker binding. In the case of PNHLPLPGPPFSFQNVLVVL [KANK4], the Kd with ENAH EVH1 is above 150 µM. On the same count and under the same terms, for FIAHILPAPPDCFPDKVKAF [FLNC] the value was above 150 µM; for GYPYQYPGPPPCFPPAYQDP [DVL1], above 150 µM. On the same count and under the same terms, in the case of RPATGYPLPPQIFNESQYRG [SH3BGRL] it was above 150 µM.

Turning to ALPHPGAAPWPMAFPYQYPPPAHPYNPHPGFPELGY [DVL3P1A], the Kd with Homer1 EVH1 is above 150 µM.
